Test results reported in publication PMC2699502.

B1: EcoR124I M subunit (HsdM) (enzyme)
chain: MKMTSIQQRAELHRQIWQIANDVRGSVDGWDFKQYVLGALFYRFISENFSSYIEAGDDSICYAKLDDSVITDDIKDDAIKTKGYFIYPSQLFCNVAAKANTNDRLNADLNSIFVAIESSAYGYPSEADIKGLFADFDTTSNRLGNTVKDKNARLAAVLKGVEGLKLGDFNEHQIDLFGDAYEFLISNYAANAGKSGGEFFTPQHVSKLIAQLAMHGQTHVNKIYDPAAGSGSLLLQAKKQFDNHIIEEGFFGQEINHTTYNLARMNMFLHNINYDKFDIKLGNTLTEPHFRDEKPFDAIVSNPPYSVKWIGSDDPTLINDERFAPAGVLAPKSKADFAFVLHALNYLSAKGRAAIVCFPGIFYRGGAEQKIRQYLVDNNYVETVISLAPNLFFGTTIAVNILVLSKHKTDTNVQFIDASELFKKETNNNILTDAHIEQIMQVFASKEDVAHLAKSVAFETVVANDYNLSVSSYVEAKDNREIIDIAELNAELKTTVSKIDQLRKDIDAIVAEIEGCEVQK
B2: EcoR124I R subunit (HsdR) (enzyme)
chain: MTHQTHTIAESNNFIVLDKYIKAEPTGDSYQSESDLERELIQDLRNQGYEFISVKSQSAMLANVREQLQNLNGVVFNDSEWRRFTEQYLDNPSDGILDKTRKIHIDYICDFIFDDERLENIYLIDKKNLMRNKVQIIQQFEQAGSHANRYDVTILVNGLPLVQIELKKRGVAIREAFNQIHRYSKESFNSENSLFKYLQLFVISNGTDTRYFANTTKRDKNSFDFTMNWAKSDNTLIKDLKDFTATCFQKHTLLNVLVNYSVFDSSQTLLVMRPYQIAATERILWKIKSSFTAKNWSKPESGGYIWHTTGSGKTLTSFKAARLATELDFIDKVFFVVDRKDLDYQTMKEYQRFSPDSVNGSENTAGLKRNLDKDDNKIIVTTIQKLNNLMKAESDLPVYNQQVVFIFDECHRSQFGEAQKNLKKKFKRYYQFGFTGTPIFPENALGSETTASVFGRELHSYVITDAIRDEKVLKFKVDYNDVRPQFKSLETETDEKKLSAAENQQAFLHPMRIQEITQYILNNFRQKTHRTFPGSKGFNAMLAVSSVDAAKAYYATFKRLQEEAANKSATYKPLRIATIFSFAANEEQNAIGEISDETFDTSAMDSSAKEFLDAAIREYNSHFKTNFSTDSNGFQNYYRDLAQRVKNQDIDLLIVVGMFLTGFDAPTLNTLFVDKNLRYHGLMQAFSRTNRIYDATKTFGNIVTFRDLERSTIDAITLFGDKNTKNVVLEKSYTEYMEGFTDAATGEAKRGFMTVVSELEQRFPDPTSIESEKEKKDFVKLFGEYLRAENILQNYDEFATLKALQQIDLSDPVAVEKFKAEHYVDDEKFAELQTIRLPADRKIQDYRSAYNDIRDWQRREKEAEKKEKSTTDWDDVVFEVDLLKSQEINLDYILGLIFEHNRQNKGKGEMIEEVKRLIRSSLGNRAKEGLVVDFIQQTNLDDLPDKASIIDAFFTFAQREQQREAEALIKEENLNEDAAKRYIRTSLKREYATENGTELNETLPKLSPLNPQYKTKKQAVFQKIVSFIEKFKGVGGKI

Target: EcoR124I S subunit (HsdS) (UniProt P10485)
Chain of UniProt P10485 (P10485 whole entry): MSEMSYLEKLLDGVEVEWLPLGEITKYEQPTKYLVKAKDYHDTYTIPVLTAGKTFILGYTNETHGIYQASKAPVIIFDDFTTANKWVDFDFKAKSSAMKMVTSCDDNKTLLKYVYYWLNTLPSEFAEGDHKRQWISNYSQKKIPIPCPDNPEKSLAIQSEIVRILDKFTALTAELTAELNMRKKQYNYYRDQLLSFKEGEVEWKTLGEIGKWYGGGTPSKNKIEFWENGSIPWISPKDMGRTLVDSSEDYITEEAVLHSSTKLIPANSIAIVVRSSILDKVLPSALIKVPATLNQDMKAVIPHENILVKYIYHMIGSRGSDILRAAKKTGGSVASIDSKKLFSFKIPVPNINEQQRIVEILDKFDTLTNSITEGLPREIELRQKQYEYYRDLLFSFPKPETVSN

| Binder | stoichiometry N |
| --- | --- |
| B1 | 2 M per S |
| B2 | 1 R per S |
